Experimental data: publication PMC7111318

Molecular target: Echo 6 virus full particle (strain SJZ-366) (Echovirus 6 strain SJZ-366)
Experiment: SPR

Substance | Kd
Human CD55 soluble protein (extracellular domain) (from UniProt P08174-1 35-285) (domain or fragment) | 375 nM
Human FcRn soluble protein (FCGRT extracellular domain + β2 m) (from UniProt P61769 21-119) (complex) | 242 nM
